{"source": "patent US20140288000A1", "about": "(University of California, published 2014)", "molecular_target": "human plasmin (human, UniProt P00747 97-810, limits assumed)", "sequence (P00747 97-810 limits assumed)": "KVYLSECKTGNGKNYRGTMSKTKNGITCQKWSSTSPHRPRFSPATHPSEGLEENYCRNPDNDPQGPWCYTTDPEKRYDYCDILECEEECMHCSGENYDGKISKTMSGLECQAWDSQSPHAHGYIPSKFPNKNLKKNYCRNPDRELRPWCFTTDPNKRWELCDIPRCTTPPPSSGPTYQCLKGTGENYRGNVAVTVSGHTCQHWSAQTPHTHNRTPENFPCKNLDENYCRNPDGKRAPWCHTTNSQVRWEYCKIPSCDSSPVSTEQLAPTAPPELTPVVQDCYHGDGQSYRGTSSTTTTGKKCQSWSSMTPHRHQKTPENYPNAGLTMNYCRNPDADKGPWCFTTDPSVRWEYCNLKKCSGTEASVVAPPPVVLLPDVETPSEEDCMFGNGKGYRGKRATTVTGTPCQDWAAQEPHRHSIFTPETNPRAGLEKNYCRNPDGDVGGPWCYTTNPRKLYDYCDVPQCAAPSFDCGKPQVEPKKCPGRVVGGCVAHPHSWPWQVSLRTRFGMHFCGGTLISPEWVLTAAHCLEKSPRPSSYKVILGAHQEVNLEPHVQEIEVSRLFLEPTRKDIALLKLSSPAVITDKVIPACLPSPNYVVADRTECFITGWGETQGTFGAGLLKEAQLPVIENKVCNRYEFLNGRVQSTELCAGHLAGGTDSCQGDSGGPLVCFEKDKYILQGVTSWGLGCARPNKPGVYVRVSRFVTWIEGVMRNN", "assay": "cell-based or functional assay", "data": [{"binder": "plasmin-inhibiting polypeptide comprising the amino acid sequence set forth in SEQ ID NO:5 (designed binder) NAEICLLPLDYGPCRARLLRYYYDRYTQSCRQFLYGGCEGNANNFYTWEACDDACWRIEK", "values": [{"measurement": "IC50 (nM), inhibition of plasmin activity on chromogenic substrate S2251", "value": 3.4, "unit": "nM"}]}, {"binder": "plasmin-inhibiting polypeptide comprising the amino acid sequence set forth in SEQ ID NO:3 (designed binder) NAEICLLPLDTGPCRARLLRYYYDRYTQSCRQFLYGGCEGNANNFYTWEACDDACWRIEK", "values": [{"measurement": "IC50 (nM), inhibition of plasmin activity on chromogenic substrate S2251", "value": 1.8, "unit": "nM"}]}, {"binder": "plasmin-inhibiting polypeptide comprising the amino acid sequence set forth in SEQ ID NO:4 (designed binder) NAEICLLPLDTGPCRARLLRYYYDRYTQSCRQFLYGGCEGNANNFYTWEACDDACWRIEKVPK", "values": [{"measurement": "IC50 (nM), inhibition of plasmin activity on chromogenic substrate S2251", "value": 0.8, "unit": "nM"}]}, {"binder": "plasmin-inhibiting polypeptide comprising the amino acid sequence set forth in SEQ ID NO:6 (designed binder) NAEICLLPLDYGPCRARLLRYYYDRYTQSCRQFLYGGCEGNANNFYTWEACDDACWRIEKVPK", "values": [{"measurement": "IC50 (nM), inhibition of plasmin activity on chromogenic substrate S2251", "value": 1.8, "unit": "nM"}]}]}
